What is called IC50 is the point on the concentration scale where inhibition reaches its midpoint.

Ends that are not written are not given here. * marks the point of attachment. Palmitoyl = CCCCCCCCCCCCCCCC(=O)*

Here are results for 23 molecules from US20040002442A1 (Bayer, published 2004).

Assay [1] addresses T1, GLP-1 receptor present in the plasma membranes isolated from RINm5F cells (UniProt P32301 22-463, limits assumed).
T1 construct: whole, on cells
T1 sequence (looked up): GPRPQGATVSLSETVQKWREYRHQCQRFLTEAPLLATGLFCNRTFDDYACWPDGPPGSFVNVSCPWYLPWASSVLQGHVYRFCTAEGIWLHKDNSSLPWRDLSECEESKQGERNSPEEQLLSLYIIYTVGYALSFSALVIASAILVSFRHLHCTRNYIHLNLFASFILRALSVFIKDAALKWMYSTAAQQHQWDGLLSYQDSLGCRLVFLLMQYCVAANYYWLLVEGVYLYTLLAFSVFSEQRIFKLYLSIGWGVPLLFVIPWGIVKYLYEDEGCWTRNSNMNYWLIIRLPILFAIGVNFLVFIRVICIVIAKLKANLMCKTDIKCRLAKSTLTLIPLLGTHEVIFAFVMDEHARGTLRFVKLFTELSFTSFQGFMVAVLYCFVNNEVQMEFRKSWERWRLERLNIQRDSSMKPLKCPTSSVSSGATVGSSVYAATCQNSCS
Description: 125I-GLP-1 displacement, RINm5F plasma membranes. How it is done:
Competitive binding of some polypeptides of the invention to RINm5F cell plasma membranes was measured as follows. Ninety-six-well GF/C filtration plates (Millipore, Bedford, Ma.) were blocked with 0.3% PEI for at least one hour and washed twice with binding buffer consisting of 20 mM Tris, 2 mM EDTA, pH 7.5, 1 mg/ml BSA, and 1 mg/ml bacitracin. […] The plates were dried, scintillant was added to each well, and cpm per well determined using a Wallac Microbeta counter.

Assay [2] addresses T2, glucagon receptor present in the plasma membranes isolated from rat liver (rat, UniProt P30082 27-485).
T2 construct: whole, on cells
The assay is described as follows: 125I-glucagon displacement, rat liver plasma membranes. The protocol: Competitive binding of some polypeptides of the invention to rat liver plasma membranes was measured as follows. Ninety-six-well GF/C filtration plates (Millipore, Bedford, Ma.) were blocked with 0.1% PEI for at least one hour and washed twice with binding buffer consisting of 20 mM Tris, 2 mM EDTA, pH 7.5, 1 mg/ml BSA, and 1 mg/ml bacitracin. […] The plates were dried, scintillant was added to each well, and cpm per well determined using a Wallac Microbeta counter.

Assay [3] concerns the target T2, glucagon receptor present in the plasma …. Description: cell-based or functional assay.
Assay [4] has as its target T1, GLP-1 receptor present in the plasma …. Description: cell-based or functional assay.

T2 sequence (P30082 27-485): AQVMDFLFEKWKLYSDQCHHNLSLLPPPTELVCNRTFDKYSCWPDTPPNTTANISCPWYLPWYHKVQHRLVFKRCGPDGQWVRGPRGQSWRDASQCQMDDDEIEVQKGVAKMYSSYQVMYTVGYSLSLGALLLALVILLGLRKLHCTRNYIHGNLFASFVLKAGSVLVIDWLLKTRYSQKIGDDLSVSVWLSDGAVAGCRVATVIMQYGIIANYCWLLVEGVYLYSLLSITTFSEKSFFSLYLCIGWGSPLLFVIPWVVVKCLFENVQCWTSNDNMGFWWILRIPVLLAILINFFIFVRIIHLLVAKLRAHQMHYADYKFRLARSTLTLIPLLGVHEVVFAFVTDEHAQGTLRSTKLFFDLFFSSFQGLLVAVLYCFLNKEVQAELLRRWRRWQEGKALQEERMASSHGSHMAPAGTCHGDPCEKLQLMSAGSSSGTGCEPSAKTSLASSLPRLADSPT

Consider HSQGTFTSDYAKYLDARRAKEFIAWLVKGRG [G51], for which the IC50 is 8.2 nM in assay [1] and 154 nM in assay [2]. The “% Inhib glucagon stimulated cAMP increase (10 uM peptide, rat hepatocytes)” value in assay [3] was found to be 35.2%. In assay [4], the “% GLP1 max, cAMP SPA in RINm5F cells” value is 91.2%. In addition, the “Relative Potency (%), cAMP SPA in RINm5F cells” value (“Relative Potency (%), cAMP SPA” below) in assay [4] is 58.1%.
The matching figures for HSQGTFTSDYARYLDARRAREFIKWLVRGRC [G185]: 4.5 nM, 48 nM, 32%, 104% and 13%.
HSQGTFTSDYAKYLDARRAKEFIAWLVKGRC(PEG22kD) [G277] returned an IC50 in assay [2] of 65.5 nM. In addition, in assay [4], the “% GLP1 max, cAMP SPA in RINm5F cells” value is 93.7% and the “Relative Potency (%), cAMP SPA” value was determined as 1.8%.
On to HSQGTFTSDYARYLDARRAKEFIAWLVRGRG [G82], for which the 50% inhibitory concentration (IC50) in assay [1] was 8.1 nM. Moreover, the IC50 in assay [2] is 33.6 nM. For the same molecule, in assay [3], the “% Inhib glucagon stimulated cAMP increase (10 uM peptide, rat hepatocytes)” value amounted to 30.2%. In assay [4], the “% GLP1 max, cAMP SPA in RINm5F cells” value amounted to 97.1% and the “Relative Potency (%), cAMP SPA” value was 29.9%.
The like results for HSQGTFTSDYAKYLDARRAKEFIAWLVCGRG [G74] were, in that order, 4.4 nM, 21.7 nM, 23.7%, 88.7% and 8.4%.
Consider HSQGTFTSDYAKYLDARRAKEFIAWLVKGRK(Palmitoyl) [G88], for which the IC50 in assay [1] stood at 109 nM. The IC50 in assay [2] turned out to be 350 nM. In assay [4], the “% GLP1 max, cAMP SPA in RINm5F cells” value amounted to 118% and the “Relative Potency (%), cAMP SPA” value was determined as 2.3%.
In the case of HSQGTFTSDYAKYLDAKKAKEFIAWLVKGRG [G58], the figures for the IC50 in assay [1] and in assay [2] were 6.9 nM and 164 nM, respectively. Also, in assay [3], the “% Inhib glucagon stimulated cAMP increase (10 uM peptide, rat hepatocytes)” value came to 32.6%. The “% GLP1 max, cAMP SPA in RINm5F cells” value in assay [4] is 99%. The “Relative Potency (%), cAMP SPA” value in assay [4] was determined as 76.1%.
For the molecule HSQGTFTSDYAKYLDAAKAKEFIAWLVKGRG [G60], the IC50 came to 13.8 nM in assay [1] and 682 nM in assay [2]. Moreover, the “% Inhib glucagon stimulated cAMP increase (10 uM peptide, rat hepatocytes)” value in assay [3] was determined as 21.8%. Moreover, the “% GLP1 max, cAMP SPA in RINm5F cells” value in assay [4] turned out to be 95.7%. The “Relative Potency (%), cAMP SPA” value in assay [4] was 22.3%.
HSQGTFTSDYAKYLDARRAKEFIAWLVKCRG [G75] returned an IC50 in assay [1] of 7.7 nM. This molecule also registered an IC50 in assay [2] of 54 nM. Besides, the “% Inhib glucagon stimulated cAMP increase (10 uM peptide, rat hepatocytes)” value in assay [3] amounted to 17.1%. In assay [4], the “% GLP1 max, cAMP SPA in RINm5F cells” value is 86.1% and the “Relative Potency (%), cAMP SPA” value turned out to be 6.6%.
The matching figures for HSQGTFTSDYAKYLDARRACEFIAWLVKGRG [G71]: 5.8 nM, 25.6 nM, 11.3%, 93.3% and 4.3%.
For the molecule HSQGTFTSDYARYLDARRAREFIKWLVRGRC(PEG22kD) [G2185], the IC50 in assay [1] is 56.1 nM. In addition, the IC50 in assay [2] is 347 nM. In assay [4], the “% GLP1 max, cAMP SPA in RINm5F cells” value was determined as 113% and the “Relative Potency (%), cAMP SPA” value was 6.2%.
The like results for HSQGTFTSDYARYLDARRAREFIKWLVRGRC(PEG43kD) [G4185] were, in that order, 248 nM, 547 nM, 98.3% and 0.7%.
In assay [1], HSQGTFTSDYARYLDAAKAKEFIAWLVKGRG [G61] displayed an IC50 of 10.6 nM. Moreover, in assay [2], the IC50 was determined as 232 nM. Moreover, in assay [3], the “% Inhib glucagon stimulated cAMP increase (10 uM peptide, rat hepatocytes)” value amounted to 45.2%. Besides, in assay [4], the “% GLP1 max, cAMP SPA in RINm5F cells” value was determined as 96% and the “Relative Potency (%), cAMP SPA” value was 12.1%.
HSQGTFTSDYARYLDARRAREFIK(Palmitoyl)WLVRGRG [G90]: the concentration for half-maximal inhibition (IC50) in assay [1] amounted to 25.4 nM. The molecule also yielded an IC50 in assay [2] of 726 nM. Moreover, in assay [4], the “% GLP1 max, cAMP SPA in RINm5F cells” value was found to be 83.5% and the “Relative Potency (%), cAMP SPA” value is 0.8%.
Turning to HSQGTFTSDYAKYLDARRAKEFIAWLVKGCG [G76], the IC50 in assay [1] was 10.2 nM; in assay [2], 59.1 nM. For the same molecule, in assay [3], the “% Inhib glucagon stimulated cAMP increase (10 uM peptide, rat hepatocytes)” value was 23%. In addition, in assay [4], the “% GLP1 max, cAMP SPA in RINm5F cells” value worked out at 85%. Moreover, the “Relative Potency (%), cAMP SPA” value in assay [4] was 7.7%.
HSQGTFTSDYARYLDAKKAKEFIAWLVKGRG [G59] returned an IC50 in assay [1] of 2.1 nM. In assay [2], this molecule returned an IC50 of 97.5 nM. For the same molecule, in assay [3], the “% Inhib glucagon stimulated cAMP increase (10 uM peptide, rat hepatocytes)” value amounted to 41.1%. Also, in assay [4], the “% GLP1 max, cAMP SPA in RINm5F cells” value is 102% and the “Relative Potency (%), cAMP SPA” value worked out at 22.7%.
In turn, HSQGTFTSDYAKYLDARRAKEFIAWLVKGRC [G77] gave an IC50 in assay [1] of 8.9 nM. Moreover, the IC50 in assay [2] came out at 61.1 nM. In assay [3], the “% Inhib glucagon stimulated cAMP increase (10 uM peptide, rat hepatocytes)” value came to 18.6%. Besides, in assay [4], the “% GLP1 max, cAMP SPA in RINm5F cells” value worked out at 92.1% and the “Relative Potency (%), cAMP SPA” value stood at 9.5%.
The matching figures for HSQGTFTSDYARYLDARRAREFIKWLVRGRG [G83]: 3.2 nM, 28.6 nM, 24.7%, 89.4% and 29.9%.
The matching figures for HSQGTFTSDYARYLDARRAREFIAWLVKGRG [G84]: 1.4 nM, 11.7 nM, 25.2%, 114% and 61.8%.
HSQGTFTSDYARYLDARRAK(Palmitoyl)EFIKWLVRGRG (not fully specified; printed as HSQGTFTSDYARYLDARRAK(FA)EFIKWLVRGRG) [G183]: the IC50 in assay [1] was determined as 159 nM. This molecule displayed an IC50 in assay [2] of 663 nM. Further, in assay [4], the “% GLP1 max, cAMP SPA in RINm5F cells” value was 90.5% and the “Relative Potency (%), cAMP SPA” value worked out at 0.6%.
With HSQGTFTSDYSKYLEGQAAKEFIAWLVKGR-NH2 [G5], the IC50 in assay [1] is 0.5 nM. Further, in assay [2], the IC50 is 243 nM. Besides, in assay [4], the “% GLP1 max, cAMP SPA in RINm5F cells” value turned out to be 109% and the “Relative Potency (%), cAMP SPA” value was 69.9%.
For the molecule HSQGTFTSDYARYLDARRAREFIKWLVRGRGK(Palmitoyl) [G182], the IC50 worked out at 12.6 nM in assay [1] and 220 nM in assay [2]. In addition, the “% GLP1 max, cAMP SPA in RINm5F cells” value in assay [4] worked out at 104%. In addition, the “Relative Potency (%), cAMP SPA” value in assay [4] amounted to 1.4%.
Consider HSQGTFTSDYSKYLDSRRAQDFVQWLVKGR-NH2 [G1], for which the IC50 in assay [1] was 6 nM; in assay [2] it was 6.6 nM. Further, the “% GLP1 max, cAMP SPA in RINm5F cells” value in assay [4] is 112%. In addition, in assay [4], the “Relative Potency (%), cAMP SPA” value was found to be 6.9%.
